Results as given in patent US7399847 (GENERAL HOSPITAL, dated 2008).

Molecular target: T1, PSGL-1-NH2/CD34-COOH (UniProt Q14242 18-117; P28906 30-385)
T1 construct: range mature amino terminus-117;range 30-end (end not numbered), on cells; Cotransfected with FTVIIh; also called PSGL-1 apical domain on CD34
T1 sequence: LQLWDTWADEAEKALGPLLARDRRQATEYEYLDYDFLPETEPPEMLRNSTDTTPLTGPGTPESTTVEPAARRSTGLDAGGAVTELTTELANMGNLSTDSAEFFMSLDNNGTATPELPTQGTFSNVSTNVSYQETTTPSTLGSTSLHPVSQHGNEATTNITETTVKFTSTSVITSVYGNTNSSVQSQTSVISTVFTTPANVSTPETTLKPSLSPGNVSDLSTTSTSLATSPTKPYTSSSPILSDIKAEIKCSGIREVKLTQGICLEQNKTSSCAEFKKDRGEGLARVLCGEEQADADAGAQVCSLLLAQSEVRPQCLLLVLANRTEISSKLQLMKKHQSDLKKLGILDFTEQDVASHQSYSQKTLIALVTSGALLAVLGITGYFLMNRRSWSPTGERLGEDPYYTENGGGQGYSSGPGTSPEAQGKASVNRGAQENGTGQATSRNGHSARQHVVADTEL
Assay: adhesion of 51Cr-labelled transfected COS cells to immobilized P-selectin:Ig
Protocol: To assess the importance of these residues, the tyrosines were converted to phenylalanine (FIG. 9A). In a second peptide, the threonines were converted to alanines. In addition, a third peptide, containing a quintuple mutation, was prepared such that both conversions were made in a single peptide. […] Cells expressing the resulting chimeras were tested for their ability to bind to immobilized P-selectin (FIG. 9A). […] Expression of the flu tag or sLe^x epitope was not affected in these cells.

B1: P-selectin:immunoglobulin fusion protein (Fc fusion, UniProt P16109 42-321, looked up)
chain: WTYHYSTKAYSWNISRKYCQNRYTDLVAIQNKNEIDYLNKVLPYYSSYYWIGIRKNNKTWTWVGTKKALTNEAENWADNEPNNKRNNEDCVEIYIKSPSAPGKWNDEHCLKKKHALCYTASCQDMSCSKQGECLETIGNYTCSCYPGFYGPECEYVRECGELELPQHVLMNCSHPLGNFSFNSQCSFHCTDGYQVNGPSKLECLASGIWTNKPPQCLAAQCPPLKIPERGNMTCLHSAKAFQHQSSCSFSCEEGFALVGPEVVQCTASGVWTAPAPVCKA
notes: domain: lectin, EGF-related, and first two short consensus repeat related domains; Made in COS cells; captured from supernatant on wells coated with goat anti-human IgG Fc; also called soluble P-selectin; P-selectin Ig chimera; not shown: hinge, CH2, and CH3 domains of human IgG1
  binding result: binds
